Experimental data from article PMC9367764, “Functional Versatility of the Human 2-Oxoadipate Dehydrogenase in the L-Lysine Degradation Pathway toward Its Non-Cognate Substrate 2-Oxopimelic Acid” (International Journal of Molecular Sciences, 2022).

Key:
[1] = molecular target: E2o 1-173 di-domain, labelled with N-(1-pyrene) maleimide (human); assay: other fluorescence titration; pyrene-labelled E2o 1-173 di-domain titrated by Arg715Cys E1a; 25 °C; 100 mM HEPES (pH 7.5), 0.15 M NaCl, 1% glycerol
[2] = molecular target: human dihydrolipoamide dehydrogenase (E3) (human) (UniProt P09622); assay: pull-down; co-purification of E1a or Arg715Cys E1a with E2o and E3 (assembly into OADHc) on immobilized metal affinity chromatography; relative amounts from band intensities in PAGE; which component was held by the resin is not stated
Chain of human dihydrolipoamide dehydrogenase (E3) (human) (P09622 36-509): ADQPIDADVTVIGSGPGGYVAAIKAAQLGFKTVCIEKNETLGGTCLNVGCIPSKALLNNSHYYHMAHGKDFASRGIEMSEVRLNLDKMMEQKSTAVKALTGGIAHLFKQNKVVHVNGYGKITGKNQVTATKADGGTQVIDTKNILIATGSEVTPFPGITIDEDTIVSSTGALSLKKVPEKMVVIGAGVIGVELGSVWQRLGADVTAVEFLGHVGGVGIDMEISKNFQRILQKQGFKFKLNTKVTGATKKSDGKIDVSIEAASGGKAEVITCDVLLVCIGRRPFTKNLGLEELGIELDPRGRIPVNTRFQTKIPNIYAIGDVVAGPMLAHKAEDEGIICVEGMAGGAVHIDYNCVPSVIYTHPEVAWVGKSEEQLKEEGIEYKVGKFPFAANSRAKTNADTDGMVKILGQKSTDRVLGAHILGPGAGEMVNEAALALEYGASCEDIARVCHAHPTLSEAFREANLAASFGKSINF

[3] = molecular target: human dihydrolipoamide succinyltransferase (E2o) (human) (UniProt P36957); assay: as above
Chain of human dihydrolipoamide succinyltransferase (E2o) (human) (P36957 68-453): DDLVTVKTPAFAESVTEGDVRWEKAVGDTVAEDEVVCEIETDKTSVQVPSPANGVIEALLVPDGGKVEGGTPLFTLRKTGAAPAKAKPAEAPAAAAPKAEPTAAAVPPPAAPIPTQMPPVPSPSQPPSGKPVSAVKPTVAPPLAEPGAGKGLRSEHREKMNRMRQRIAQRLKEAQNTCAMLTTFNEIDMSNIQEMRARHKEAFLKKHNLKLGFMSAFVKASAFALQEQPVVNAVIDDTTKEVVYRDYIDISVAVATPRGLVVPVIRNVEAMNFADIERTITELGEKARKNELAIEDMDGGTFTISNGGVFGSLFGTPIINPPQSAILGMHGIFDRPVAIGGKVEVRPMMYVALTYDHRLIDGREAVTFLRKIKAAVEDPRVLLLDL

[4] = molecular target: E2o di-domain (linker and part of core domain) (Homo sapiens) (UniProt P36957); assay: fluorescence; settings: cited from earlier work
Chain of E2o di-domain (linker and part of core domain) (Homo sapiens) (P36957 68-219): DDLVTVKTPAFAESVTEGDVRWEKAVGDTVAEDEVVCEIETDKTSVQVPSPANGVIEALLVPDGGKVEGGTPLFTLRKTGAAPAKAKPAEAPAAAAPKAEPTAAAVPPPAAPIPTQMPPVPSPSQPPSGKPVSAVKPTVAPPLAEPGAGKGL

[5] = substrate: O=C(O)CCCC(=O)C(=O)O; assay: E1a-specific DCPIP reduction assay (Km, kcat); assay type: biochemical, Homo sapiens; settings: ThDP, Mg2+ active center; decarboxylated to the E1a-ThDP-enamine intermediate
[6] = substrate: O=C(O)CCCCC(=O)C(=O)O; assay: E1a-specific DCPIP reduction assay (Km, kcat); assay type: biochemical, Homo sapiens; settings: ThDP, Mg2+ active center; decarboxylated to the E1a-ThDP-enamine intermediate
[7] = substrate: O=C(O)CCCC(=O)C(=O)O; assay: E1a-specific DCPIP reduction assay (Km); assay type: biochemical, Homo sapiens; settings: ThDP, Mg2+

Q: Which results are given for “Arg715Cys E1a variant of human 2-oxoadipate dehydrogenase (enzyme)”?
A: Kd [1]: 1130 nM; relative amount of E1a among the components co-purified as OADHc (band intensity in PAGE) [2]: 7.7%; relative amount of E1a among the components co-purified as OADHc (band intensity in PAGE) [3]: 7.7%

Q: With “human 2-oxoadipate dehydrogenase (E1a), wild type (enzyme)” as the molecule, how does the relative amount of E1a among the components co-purified as OADHc (band intensity in PAGE) [2] read?
A: 46%

Q: And the relative amount of E1a among the components co-purified as OADHc (band intensity in PAGE) [3]?
A: 46%

Q: Which Kd [4] does the source give for “E1a (2-oxoadipate dehydrogenase) (from UniProt Q96HY7)” here?
A: 1120 nM

B1: 2-oxoadipate dehydrogenase (E1a) (Homo sapiens) (protein)
chain: GYQTERGVYGYRPRKPESREPQGALERPPVDHGLARLVTVYCEHGHKAAKINPLFTGQALLENVPEIQALVQTLQGPFHTAGLLNMGKEEASLEEVLVYLNQIYCGQISIETSQLQSQDEKDWFAKRFEELQKETFTTEERKHLSKLMLESQEFDHFLATKFSTVKRYGGEGAESMMGFFHELLKMSAYSGITDVIIGMPHRGRLNLLTGLLQFPPELMFRKMRGLSEFPENFSATGDVLSHLTSSVDLYFGAHHPLHVTMLPNPSHLEAVNPVAVGKTRGRQQSRQDGDYSPDNSAQPGDRVICLQVHGDASFCGQGIVPETFTLSNLPHFRIGGSVHLIVNNQLGYTTPAERGRSSLYCSDIGKLVGCAIIHVNGDSPEEVVRATRLAFEYQRQFRKDVIIDLLCYRQWGHNELDEPFYTNPIMYKIIRARKSIPDTYAEHLIAGGLMTQEEVSEIKSSYYAKLNDHLNNMAHYRPPALNLQAHWQGLAQPEAQITTWSTGVPLDLLRFVGMKSVEVPRELQMHSHLLKTHVQSRMEKMMDGIKLDWATAEALALGSLLAQGFNVRLSGQDVGRGTFSQRHAIVVCQETDDTYIPLNHMDPNQKGFLEVSNSPLSEEAVLGFEYGMSIESPKLLPLWEAQFGDFFNGAQIIFDTFISGGEAKWLLQSGIVILLPHGYDGAGPDHSSCRIERFLQMCDSAEEGVDGDTVNMFVVHPTTPAQYFHLLRRQMVRNFRKPLIVASPKMLLRLPAAVSTLQEMAPGTTFNPVIGDSSVDPKKVKTLVFCSGKHFYSLVKQRESLGAKKHDFAIIRVEELCPFPLDSLQQEMSKYKHVKDHIWSQEEPQNMGPWSFVSPRFEKQLACKLRLVGRPPLPVPAVGIGTVHLHQHEDILAKTFA
notes: C-terminally His6-tagged E1a
Q: Which Km [5] does the source give for B1 here?
A: 4.9 µM

Q: What about the Km [6] of the same molecule?
A: 37 µM

B2: 2-oxoadipate dehydrogenase (E1a) (Homo sapiens; R455Q) (protein)
chain: GYQTERGVYGYRPRKPESREPQGALERPPVDHGLARLVTVYCEHGHKAAKINPLFTGQALLENVPEIQALVQTLQGPFHTAGLLNMGKEEASLEEVLVYLNQIYCGQISIETSQLQSQDEKDWFAKRFEELQKETFTTEERKHLSKLMLESQEFDHFLATKFSTVKRYGGEGAESMMGFFHELLKMSAYSGITDVIIGMPHRGRLNLLTGLLQFPPELMFRKMRGLSEFPENFSATGDVLSHLTSSVDLYFGAHHPLHVTMLPNPSHLEAVNPVAVGKTRGRQQSRQDGDYSPDNSAQPGDRVICLQVHGDASFCGQGIVPETFTLSNLPHFRIGGSVHLIVNNQLGYTTPAERGRSSLYCSDIGKLVGCAIIHVNGDSPEEVVRATRLAFEYQRQFRKDVIIDLLCYRQWGHNELDEPFYTNPIMYKIIRAQKSIPDTYAEHLIAGGLMTQEEVSEIKSSYYAKLNDHLNNMAHYRPPALNLQAHWQGLAQPEAQITTWSTGVPLDLLRFVGMKSVEVPRELQMHSHLLKTHVQSRMEKMMDGIKLDWATAEALALGSLLAQGFNVRLSGQDVGRGTFSQRHAIVVCQETDDTYIPLNHMDPNQKGFLEVSNSPLSEEAVLGFEYGMSIESPKLLPLWEAQFGDFFNGAQIIFDTFISGGEAKWLLQSGIVILLPHGYDGAGPDHSSCRIERFLQMCDSAEEGVDGDTVNMFVVHPTTPAQYFHLLRRQMVRNFRKPLIVASPKMLLRLPAAVSTLQEMAPGTTFNPVIGDSSVDPKKVKTLVFCSGKHFYSLVKQRESLGAKKHDFAIIRVEELCPFPLDSLQQEMSKYKHVKDHIWSQEEPQNMGPWSFVSPRFEKQLACKLRLVGRPPLPVPAVGIGTVHLHQHEDILAKTFA
notes: C-terminally His6-tagged E1a variant
Q: With B2 as the molecule, how does the Km [7] read?
A: 3.5 µM

B3: 2-oxoadipate dehydrogenase (E1a) (Homo sapiens; P773L) (protein)
chain: GYQTERGVYGYRPRKPESREPQGALERPPVDHGLARLVTVYCEHGHKAAKINPLFTGQALLENVPEIQALVQTLQGPFHTAGLLNMGKEEASLEEVLVYLNQIYCGQISIETSQLQSQDEKDWFAKRFEELQKETFTTEERKHLSKLMLESQEFDHFLATKFSTVKRYGGEGAESMMGFFHELLKMSAYSGITDVIIGMPHRGRLNLLTGLLQFPPELMFRKMRGLSEFPENFSATGDVLSHLTSSVDLYFGAHHPLHVTMLPNPSHLEAVNPVAVGKTRGRQQSRQDGDYSPDNSAQPGDRVICLQVHGDASFCGQGIVPETFTLSNLPHFRIGGSVHLIVNNQLGYTTPAERGRSSLYCSDIGKLVGCAIIHVNGDSPEEVVRATRLAFEYQRQFRKDVIIDLLCYRQWGHNELDEPFYTNPIMYKIIRARKSIPDTYAEHLIAGGLMTQEEVSEIKSSYYAKLNDHLNNMAHYRPPALNLQAHWQGLAQPEAQITTWSTGVPLDLLRFVGMKSVEVPRELQMHSHLLKTHVQSRMEKMMDGIKLDWATAEALALGSLLAQGFNVRLSGQDVGRGTFSQRHAIVVCQETDDTYIPLNHMDPNQKGFLEVSNSPLSEEAVLGFEYGMSIESPKLLPLWEAQFGDFFNGAQIIFDTFISGGEAKWLLQSGIVILLPHGYDGAGPDHSSCRIERFLQMCDSAEEGVDGDTVNMFVVHPTTPAQYFHLLRRQMVRNFRKPLIVASPKMLLRLLAAVSTLQEMAPGTTFNPVIGDSSVDPKKVKTLVFCSGKHFYSLVKQRESLGAKKHDFAIIRVEELCPFPLDSLQQEMSKYKHVKDHIWSQEEPQNMGPWSFVSPRFEKQLACKLRLVGRPPLPVPAVGIGTVHLHQHEDILAKTFA
Q: For B3, which Km [7] is on record?
A: 6 µM

B4: 2-oxoadipate dehydrogenase (E1a) (Homo sapiens; Q305H) (protein)
chain: GYQTERGVYGYRPRKPESREPQGALERPPVDHGLARLVTVYCEHGHKAAKINPLFTGQALLENVPEIQALVQTLQGPFHTAGLLNMGKEEASLEEVLVYLNQIYCGQISIETSQLQSQDEKDWFAKRFEELQKETFTTEERKHLSKLMLESQEFDHFLATKFSTVKRYGGEGAESMMGFFHELLKMSAYSGITDVIIGMPHRGRLNLLTGLLQFPPELMFRKMRGLSEFPENFSATGDVLSHLTSSVDLYFGAHHPLHVTMLPNPSHLEAVNPVAVGKTRGRHQSRQDGDYSPDNSAQPGDRVICLQVHGDASFCGQGIVPETFTLSNLPHFRIGGSVHLIVNNQLGYTTPAERGRSSLYCSDIGKLVGCAIIHVNGDSPEEVVRATRLAFEYQRQFRKDVIIDLLCYRQWGHNELDEPFYTNPIMYKIIRARKSIPDTYAEHLIAGGLMTQEEVSEIKSSYYAKLNDHLNNMAHYRPPALNLQAHWQGLAQPEAQITTWSTGVPLDLLRFVGMKSVEVPRELQMHSHLLKTHVQSRMEKMMDGIKLDWATAEALALGSLLAQGFNVRLSGQDVGRGTFSQRHAIVVCQETDDTYIPLNHMDPNQKGFLEVSNSPLSEEAVLGFEYGMSIESPKLLPLWEAQFGDFFNGAQIIFDTFISGGEAKWLLQSGIVILLPHGYDGAGPDHSSCRIERFLQMCDSAEEGVDGDTVNMFVVHPTTPAQYFHLLRRQMVRNFRKPLIVASPKMLLRLPAAVSTLQEMAPGTTFNPVIGDSSVDPKKVKTLVFCSGKHFYSLVKQRESLGAKKHDFAIIRVEELCPFPLDSLQQEMSKYKHVKDHIWSQEEPQNMGPWSFVSPRFEKQLACKLRLVGRPPLPVPAVGIGTVHLHQHEDILAKTFA
notes: as for B2
Q: Which Km [7] does the source give for B4 here?
A: 5 µM
